Assays:
[1] = target: A. niger β-Glucosidase (BGL1); test: Inactivation of A. niger β-glucosidase by 2FGlcF, residual activity with DNPGlc; assay type: biochemical, Aspergillus niger; conditions: 30 mM citrate buffer pH=4.8, 50° C., 0.5-6 mM inactivator
Description: Pure A. niger β-Glucosidase enzyme (0.47 mg/ml) was incubated in the presence of various concentrations of 2-deoxy-2-fluoro-β-glucosyl fluoride (2FGlcF, 0.5-6 mM) in 30 mM citrate buffer pH=4.8 at 50° C. Residual enzyme activity was determined at different time intervals by addition of an aliquot (10 μl) of the inactivation mixture, to a solution containing citrate buffer (30 mM, pH=4.8), BSA (8 μg) and 2,4-dinitrophenyl β-D-glucopyranoside (DNPGlc, 0.625 mM, 830 μl). Release of DNP was determined spectrophotometrically by measuring the absorbance at 400 nm one minute after the addition of the substrate.
Enzyme was incubated in the presence of various concentrations of 2FGlcF and residual enzyme activity was monitored at different time intervals.

[2] = tested on: 2-deoxy-2-fluoroglucosyl-BGL1; test: Reactivation of 2FGlcF-inactivated enzyme in the presence of linamarin; assay type: biochemical, Aspergillus niger; conditions: linamarin 0-16 mM, pH=4.8, 50° C., 0, 10, 20 and 30 min
Description: Reactivation rates were determined as follows: pure A. niger β-glucosidase (0.34 mg/ml) was preincubated with 2FGlcF (5 mM) for 15 min, after which the excess of the inactivator was diafiltered by 20-kDa nominal molecular mass cutoff centrifugal concentrators (Sartorius Inc., Goettingen, Germany). Samples of the purified, inactivated enzyme were incubated in the presence linamarin (0-16 mM) in citrate buffer (30 mM, pH=4.8) at 50° C. for 0, 10, 20 and 30 minutes, and the activity of each sample was determined using p-nitrophenyl β-D-glucopyranoside (pNPGlc) as a substrate.
Rates of reactivation of 2-deoxy-2-fluoroglucosyl-BGL1 were determined in the presence of different concentrations of linamarin by monitoring activity regain after 0, 10, 20 and 30 min (FIG. 9).

[3] = Determination of thermal stability of A. niger β-glucosidase (standard pNPGlc assay); assay type: physicochemical; conditions: for % activity: percent of enzyme solution kept at 4° C., pH=5
Description: Determination of Thermal Stability of A. niger β-Glucosidase:
Recombinant enzyme (40 μg/ml) was dissolved in 20 mM citrate phosphate buffer, pH=5. Each tested sample (8 μl) was covered by 15 μl mineral oil. The activity was determined by the standard pNPGlc assay (7).
Thermal stability of the recombinant enzyme was evaluated at different temperatures, presented as percent enzymatic activity relative to an enzyme solution kept at 4° C. Results obtained are summarized in Table 2 and illustrated in FIG. 10.

[4] = Quantitative β-glucosidase assay using pNPGlc as a substrate; assay type: biochemical
Description: Quantitative assays were performed using pNPGlc as a substrate according to Shoseyov (7).

[5] = SDS-PAGE activity gel staining (MUGlc) of transgenic tobacco plant extracts; assay type: biochemical, Nicotiana tabacum cv. Samson; conditions: number of tobacco regenerates with BGL1 activity
Description: Detection of β-glucosidase in polyacrylamide gels was carried out by washing the SDS-polyacrylamide gel with 1:1 isopropanol:PC buffer to remove SDS and renature the enzyme. The gel was washed once in PC buffer and incubated in a thin layer of a solution of 0.5 mM MUGlc. After incubation at 50° C. for one hour, the active protein band was visualized by UV light.
Western blot (40) and SDS-PAGE activity gel staining (37) were employed to screen successful transgenic lines, using the purified A. niger BGL1 protein as positive controls and non-transgenic plant as negative control.

## OC[C@H]1O[C@@H](F)[C@H](F)[C@@H](O)[C@@H]1O [2FGlcF, 2-deoxy-2-fluoro β-glucosyl fluoride]
[1]
  KI (inactivation): 35.4 mM
  pseudo-first order rate constant Ki for inactivation: 4.5 min⁻¹

## CC(C)(C#N)O[C@@H]1O[C@H](CO)[C@@H](O)[C@H](O)[C@H]1O [linamarin]
[2]
  regain of activity of 2-deoxy-2-fluoroglucosyl-BGL1: followed a first order process

B1: recombinant BGL1: Recombinant Aspergillus niger B1 β-glucosidase (SEQ ID NO:2) expressed from bgl1 cDNA in P. pastoris, S. cerevisiae or E. coli (protein)
chain: MRFTLIEAVALTAVSLASADELAYSPPYYPSPWANGQGDWAQAYQRAVDIVSQMTLDEKVNLTTGTGWELELCVGQTGGVPRLGVPGMCLQDSPLGVRDSDYNSAFPAGMNVAATWDKNLAYLRGKAMGQEFSDKGADIQLGPAAGPLGRSPDGGRNWEGFSPDPALSGVLFAETIKGIQDAGVVATAKHYIAYEQEHFRQAPEAQGFGFNISESGSANLDDKTMHELYLWPFADAIRAGAGAVMCSYNQINNSYGCQNSYTLNKLLKAELGFQGFVMSDWAAHHAGVSGALAGLDMSMPGDVDYDSGTSYWGTNLTISVLNGTVPQWRVDDMAVRIMAAYYKVGRDRLWTPPNFSSWTRDEYGYKYYYVSEGPYEKVNQYVNVQRNHSELIRRIGADSTVLLKNDGALPLTGKERLVALIGEDAGSNPYGANGCSDRGCDNGTLAMGWGSGTANFPYLVTPEQAISNEVLKHKNGVFTATDNWAIDQIEALAKTASVSLVFVNADSGEGYINVDGNLGDRRNLTLWRNGDNVIKAAASNCNNTIVVIHSVGPVLVNEWYDNPNVTAILWGGLPGQESGNSLADVLYGRVNPGAKSPFTWGKTREAYQDYLVTEPNNGNGAPQEDFVEGVFIDYRGFDKRNETPIYEFGYGLSYTTFNYSNLEVQVLSAPAYEPASGETEAAPTFGEVGNASDYLYPSGLLRITKFIYPWLNGTDLEASSGDASYGQDSSDYLPEGATDGSAQPILPAGGGPGGNPRLYDELIRVSVTIKNTGKVAGDEVPQLYVSLGGPNEPKIVLRQFERITLQPSEETKWSTTLTRRDLANWNVEKQDWEITSYPKMVFVGSSSRKLPLRASLPTVH
modifications: Aspergillus niger
[3]; 4 °C
  % activity: 100%
[3]; 50 °C
  % activity: 91.5%
[3]; 55 °C
  % activity: 83.5%
[3]; 60 °C
  % activity: 68%
[3]; 65 °C
  % activity: 17.8%
[3]; after 1 hour incubation at 60° C., percent activity of an enzyme kept at 4° C.
  % activity retained: 68%
[3]; temperature ranging from 4-60° C.
  activity maintained: above 50%
[4]; overexpressed in E. coli, E. coli extracts
  β-glucosidase activity: No apparent β-glucosidase activity could be detected
[4]; secreted by P. pastoris to the medium, without further purification
  specific activity: 124 units/mg protein

B2: BGL1: BGL1 without a signal peptide expressed in tobacco plants (plasmid pJDB1, SEQ ID NO:14) (protein)
chain: DELAYSPPYYPSPWANGQGDWAQAYQRAVDIVSQMTLDEKVNLTTGTGWELELCVGQTGGVPRLGVPGMCLQDSPLGVRDSDYNSAFPAGMNVAATWDKNLAYLRGKAMGQEFSDKGADIQLGPAAGPLGRSPDGGRNWEGFSPDPALSGVLFAETIKGIQDAGVVATAKHYIAYEQEHFRQAPEAQGFGFNISESGSANLDDKTMHELYLWPFADAIRAGAGAVMCSYNQINNSYGCQNSYTLNKLLKAELGFQGFVMSDWAAHHAGVSGALAGLDMSMPGDVDYDSGTSYWGTNLTISVLNGTVPQWRVDDMAVRIMAAYYKVGRDRLWTPPNFSSWTRDEYGYKYYYVSEGPYEKVNQYVNVQRNHSELIRRIGADSTVLLKNDGALPLTGKERLVALIGEDAGSNPYGANGCSDRGCDNGTLAMGWGSGTANFPYLVTPEQAISNEVLKHKNGVFTATDNWAIDQIEALAKTASVSLVFVNADSGEGYINVDGNLGDRRNLTLWRNGDNVIKAAASNCNNTIVVIHSVGPVLVNEWYDNPNVTAILWGGLPGQESGNSLADVLYGRVNPGAKSPFTWGKTREAYQDYLVTEPNNGNGAPQEDFVEGVFIDYRGFDKRNETPIYEFGYGLSYTTFNYSNLEVQVLSAPAYEPASGETEAAPTFGEVGNASDYLYPSGLLRITKFIYPWLNGTDLEASSGDASYGQDSSDYLPEGATDGSAQPILPAGGGPGGNPRLYDELIRVSVTIKNTGKVAGDEVPQLYVSLGGPNEPKIVLRQFERITLQPSEETKWSTTLTRRDLANWNVEKQDWEITSYPKMVFVGSSSRKLPLRASLPTVH
[5]
  Activity gel positive: 0
